# From doi:10.1101/2022.11.11.516191
# T1: 14-3-3 β 130nY (human), P31946
# T1 chain: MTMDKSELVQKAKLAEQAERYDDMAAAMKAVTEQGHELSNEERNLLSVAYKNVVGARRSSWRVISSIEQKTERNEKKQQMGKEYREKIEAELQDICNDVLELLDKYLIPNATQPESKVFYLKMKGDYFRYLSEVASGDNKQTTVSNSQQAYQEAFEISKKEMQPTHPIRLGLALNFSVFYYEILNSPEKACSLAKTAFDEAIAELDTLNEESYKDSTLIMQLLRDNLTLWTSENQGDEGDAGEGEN
# T2: 14-3-3 β wild-type (human), P31946
# T2 chain: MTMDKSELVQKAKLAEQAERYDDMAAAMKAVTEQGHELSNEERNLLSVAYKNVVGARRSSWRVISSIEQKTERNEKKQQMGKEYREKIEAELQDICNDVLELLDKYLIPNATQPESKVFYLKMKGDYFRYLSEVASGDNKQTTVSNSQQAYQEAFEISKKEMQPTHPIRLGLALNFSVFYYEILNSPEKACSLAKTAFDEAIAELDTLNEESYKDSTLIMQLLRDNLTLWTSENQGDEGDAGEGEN
# T3: 14-3-3 β 213nY (human), P31946
# T3 chain: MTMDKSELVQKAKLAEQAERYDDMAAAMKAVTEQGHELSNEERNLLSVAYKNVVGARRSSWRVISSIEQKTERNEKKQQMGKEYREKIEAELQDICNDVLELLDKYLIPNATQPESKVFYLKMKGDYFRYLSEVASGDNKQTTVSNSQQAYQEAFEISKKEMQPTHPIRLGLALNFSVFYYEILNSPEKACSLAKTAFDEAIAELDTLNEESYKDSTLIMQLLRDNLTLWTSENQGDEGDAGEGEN
# How the values were obtained:
# Experiment in all cases: SEC
# Conditions in all cases: remark: other sources report otherwise
# [1] = biological target: T1, 14-3-3 β 130nY (human), P31946
# [2] = biological target: T2, 14-3-3 β wild-type (human), P31946
# [3] = biological target: T3, 14-3-3 β 213nY (human), P31946
binder,measurement,setting,value
"14-3-3 β 130nY, P31946 1-246 (natural protein, here or on the partner: 3-nitro-tyrosine at 130 (β-isoform numbering); 3-nitro-tyrosine at 130 (β-isoform numbering)) MTMDKSELVQKAKLAEQAERYDDMAAAMKAVTEQGHELSNEERNLLSVAYKNVVGARRSSWRVISSIEQKTERNEKKQQMGKEYREKIEAELQDICNDVLELLDKYLIPNATQPESKVFYLKMKGDYFRYLSEVASGDNKQTTVSNSQQAYQEAFEISKKEMQPTHPIRLGLALNFSVFYYEILNSPEKACSLAKTAFDEAIAELDTLNEESYKDSTLIMQLLRDNLTLWTSENQGDEGDAGEGEN",stoichiometry N,[1],2
"14-3-3 β wild-type, P31946 1-246 (natural protein) MTMDKSELVQKAKLAEQAERYDDMAAAMKAVTEQGHELSNEERNLLSVAYKNVVGARRSSWRVISSIEQKTERNEKKQQMGKEYREKIEAELQDICNDVLELLDKYLIPNATQPESKVFYLKMKGDYFRYLSEVASGDNKQTTVSNSQQAYQEAFEISKKEMQPTHPIRLGLALNFSVFYYEILNSPEKACSLAKTAFDEAIAELDTLNEESYKDSTLIMQLLRDNLTLWTSENQGDEGDAGEGEN",stoichiometry N,[2],2
"14-3-3 β 213nY, P31946 1-246 (natural protein, here or on the partner: 3-nitro-tyrosine at 213 (β-isoform numbering); 3-nitro-tyrosine at 213 (β-isoform numbering)) MTMDKSELVQKAKLAEQAERYDDMAAAMKAVTEQGHELSNEERNLLSVAYKNVVGARRSSWRVISSIEQKTERNEKKQQMGKEYREKIEAELQDICNDVLELLDKYLIPNATQPESKVFYLKMKGDYFRYLSEVASGDNKQTTVSNSQQAYQEAFEISKKEMQPTHPIRLGLALNFSVFYYEILNSPEKACSLAKTAFDEAIAELDTLNEESYKDSTLIMQLLRDNLTLWTSENQGDEGDAGEGEN",stoichiometry N,[3],2
